Assay results from PMC2098691, “Regulation of the Xenopus Xsox17α1 promoter by co-operating VegT and Sox17 sites”.

T1: VegT (Xenopus, UniProt P87377 1-455)
T1 sequence: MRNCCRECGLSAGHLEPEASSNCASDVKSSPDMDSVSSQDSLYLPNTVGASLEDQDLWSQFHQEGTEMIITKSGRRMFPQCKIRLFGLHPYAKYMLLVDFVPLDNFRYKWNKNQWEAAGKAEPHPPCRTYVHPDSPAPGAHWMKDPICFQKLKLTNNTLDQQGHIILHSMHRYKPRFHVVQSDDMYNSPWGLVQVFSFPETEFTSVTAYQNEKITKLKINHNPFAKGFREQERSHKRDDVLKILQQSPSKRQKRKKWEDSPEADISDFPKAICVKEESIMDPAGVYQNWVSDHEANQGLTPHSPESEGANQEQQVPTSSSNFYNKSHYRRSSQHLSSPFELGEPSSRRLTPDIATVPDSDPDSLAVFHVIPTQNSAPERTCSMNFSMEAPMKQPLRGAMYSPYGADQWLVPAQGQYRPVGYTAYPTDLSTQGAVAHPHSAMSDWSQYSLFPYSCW


biological target: T1, VegT; assay: EMSA; poly(dI.dC); 15 µl with 3 µl MDB buffer (20 mM HEPES pH 7.9, 100 mM KCl, 12.5 mM MgCl2, 0.1 mM EDTA, 17% glycerol, 2 mM DTT (printed DDT)), 2 µg poly(dI.dC), 1 µl IVT protein, 10 min + 10 min (preincubation at 30 °C); 15% gel at 4 °C; 50-fold competitor in controls; conditions: label: 5' 32P (forward strand), blunt

Binder	binding result
B1 T-box mutant (dsDNA) DNA 1: TCTCCAGAGTACGCACATTCATTGTTTGTTA DNA 2: TAACAAACAATGAATGTGCGTACTCTGGAGA	no binding
B1 T-box probe (dsDNA) DNA 1: TGTCCAGAGTTCACACCATCATTGTTTGTTA DNA 2: TAACAAACAATGATGGTGTGAACTCTGGACA	binds
T-box consensus (Derrière) (dsDNA) DNA 1: TCTCCAGAGTTCACACCTTCATTGTTTGTTA DNA 2: TAACAAACAATGAAGGTGTGAACTCTGGAGA	binds
